Test results taken from the supplement of paper PMC9112550, “Optimization of the antimicrobial peptide Bac7 by deep mutational scanning” (BMC Biology, 2022).

test system: Escherichia coli TOP10; experiment: shrunken log2 fold change of peptide-encoding DNA abundance (4.5 h post-induction vs induction); higher = less antimicrobial activity (less host growth inhibition); settings: time post-induction: 4.5 h; library: site-saturation at positions 5, 18, 19, 20
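Note: peptides expressed intracellularly from a pBAD plasmid library in pooled LB shake-flask culture, induced with 0.3% L-arabinose, DNA abundance read by NGS, three biological replicates, DESeq2 with apeglm shrinkage.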

Sequence	shrunken log2 fold change
RRIRTRPPRLPRPRPRPPICPRP	0.0623
RRIRVRPPRLPRPRPRPYFLPRP	-0.149
RRIRCRPPRLPRPRPRPMWLPRP	-0.235
RRIRWRPPRLPRPRPRPHREPRP	-0.0345
RRIRKRPPRLPRPRPRPDKHPRP	0.0337
RRIRQRPPRLPRPRPRPCKIPRP	-0.0788
RRIRSRPPRLPRPRPRPQHKPRP	-0.131
RRIRQRPPRLPRPRPRPVQSPRP	0.0508
RRIRCRPPRLPRPRPRPNSHPRP	-0.556
RRIRSRPPRLPRPRPRPKNNPRP	-0.273
RRIRPRPPRLPRPRPRPCASPRP	-0.0883
RRIRCRPPRLPRPRPRPRNLPRP	-0.222
RRIRNRPPRLPRPRPRPNANPRP	-0.199
RRIRGRPPRLPRPRPRPHEMPRP	0.143
RRIRGRPPRLPRPRPRPDESPRP	0.0316
RRIRVRPPRLPRPRPRPECPPRP	0.0319
RRIRHRPPRLPRPRPRPYYMPRP	-0.636
RRIRSRPPRLPRPRPRPEFPPRP	0.123
RRIRERPPRLPRPRPRPGGQPRP	0.171
RRIRNRPPRLPRPRPRPSFSPRP	-0.322
RRIRQRPPRLPRPRPRPSHFPRP	0.0685

Sequence	shrunken log2 fold change
RRIRMRPPRLPRPRPRPCHWPRP	-0.022
RRIRTRPPRLPRPRPRPSSRPRP	0.543
RRIRKRPPRLPRPRPRPGTAPRP	0.625
RRIRVRPPRLPRPRPRPFFRPRP	0.0448
RRIRVRPPRLPRPRPRPIQGPRP	0.0292
RRIRARPPRLPRPRPRPFMGPRP	-0.255
RRIRTRPPRLPRPRPRPWNAPRP	-0.00214
RRIRVRPPRLPRPRPRPKTWPRP	0.063
RRIRNRPPRLPRPRPRPWYWPRP	-0.109
RRIRYRPPRLPRPRPRPFGHPRP	-0.15
RRIRIRPPRLPRPRPRPAGKPRP	0.0304
RRIRERPPRLPRPRPRPIPKPRP	0.65
RRIRHRPPRLPRPRPRPEILPRP	-0.00654
RRIRGRPPRLPRPRPRPNRPPRP	-0.211
RRIRIRPPRLPRPRPRPWRVPRP	-0.0531
RRIRNRPPRLPRPRPRPRIIPRP	-0.425
RRIRWRPPRLPRPRPRPKLGPRP	0.0872
RRIRYRPPRLPRPRPRPRWAPRP	-0.0106
RRIRIRPPRLPRPRPRPPMTPRP	-0.0813
RRIRSRPPRLPRPRPRPHQCPRP	-0.325
RRIRMRPPRLPRPRPRPLFVPRP	0.286

Sequence	shrunken log2 fold change
RRIRIRPPRLPRPRPRPRHSPRP	-0.646
RRIRNRPPRLPRPRPRPERYPRP	0.0573
RRIRERPPRLPRPRPRPRAIPRP	0.0706
RRIRPRPPRLPRPRPRPWYDPRP	-0.00228
RRIRCRPPRLPRPRPRPSVEPRP	0.00103
RRIRLRPPRLPRPRPRPPKSPRP	0.275
RRIRPRPPRLPRPRPRPTGWPRP	0.519
RRIRFRPPRLPRPRPRPGIDPRP	-0.0216
RRIRFRPPRLPRPRPRPYCFPRP	-0.615
RRIRSRPPRLPRPRPRPSHRPRP	-0.41
RRIRRRPPRLPRPRPRPQKLPRP	0.102
RRIRGRPPRLPRPRPRPMWKPRP	0.0121
RRIRARPPRLPRPRPRPREAPRP	1.25
RRIRMRPPRLPRPRPRPCAEPRP	2.31
RRIRNRPPRLPRPRPRPREQPRP	-0.00697
RRIRMRPPRLPRPRPRPRNPPRP	3.17
RRIRTRPPRLPRPRPRPLLVPRP	-0.119
RRIRVRPPRLPRPRPRPRNEPRP	0.115
RRIRVRPPRLPRPRPRPGLLPRP	-0.146
RRIRARPPRLPRPRPRPWRVPRP	0.12
RRIRRRPPRLPRPRPRPYDWPRP	-0.0665
